Source: paper PMC3390244

Biological target: human transferrin receptor (hTfR, CD71) (human, UniProt P02786 89-760)
Assay: filter binding

human transferrin receptor (hTfR, CD71), sequence (P02786 89-760): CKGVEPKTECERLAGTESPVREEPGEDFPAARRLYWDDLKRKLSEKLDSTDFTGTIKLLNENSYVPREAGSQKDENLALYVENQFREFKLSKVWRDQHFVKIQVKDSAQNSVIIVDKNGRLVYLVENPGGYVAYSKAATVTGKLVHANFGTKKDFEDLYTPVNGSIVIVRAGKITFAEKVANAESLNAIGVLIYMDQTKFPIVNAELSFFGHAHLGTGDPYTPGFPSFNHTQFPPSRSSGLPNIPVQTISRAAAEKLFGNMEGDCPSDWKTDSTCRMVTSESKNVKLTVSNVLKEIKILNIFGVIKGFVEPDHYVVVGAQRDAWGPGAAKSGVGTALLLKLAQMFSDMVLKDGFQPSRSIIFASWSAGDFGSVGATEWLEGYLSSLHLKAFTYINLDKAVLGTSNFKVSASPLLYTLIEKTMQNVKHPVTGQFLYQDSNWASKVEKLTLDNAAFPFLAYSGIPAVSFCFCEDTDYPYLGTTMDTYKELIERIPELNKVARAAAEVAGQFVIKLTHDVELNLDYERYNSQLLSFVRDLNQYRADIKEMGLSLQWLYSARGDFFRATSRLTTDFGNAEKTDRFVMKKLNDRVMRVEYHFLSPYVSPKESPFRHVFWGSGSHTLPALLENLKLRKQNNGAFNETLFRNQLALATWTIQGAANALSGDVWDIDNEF

B1: c2.min (structured_RNA)
RNA: GGGGGAUCAAUCCAAGGGACCCGGAAACGCUCCCUUACACCCC
modifications: 2'-fluoro C and U; 3' inverted dT; 5' thiol
- Kd: 102 nM
